Experiments:
AE.con gp140CF [1] = biological target: T1, AE.con gp140CF; assay: ELISA, OD405 at 10 ug/ml mAb
T1 construct: also called AE.con.env03 gp140CF

AE.A244 gp120 delta 11 [2] = biological target: T2, AE.A244 gp120 delta 11 (HIV-1); assay: SPR, mAb captured on anti-Fc, monomeric gp120 injected
T2 construct: also called E.A244gp120Δ11; AE.A244 Δ11 gp120

A.9004SS V1/V2 tags = biological target: T3, A.9004SS V1/V2 tags; assay: ELISA, OD405 at 10 ug/ml
T3 V1V2 tags construct: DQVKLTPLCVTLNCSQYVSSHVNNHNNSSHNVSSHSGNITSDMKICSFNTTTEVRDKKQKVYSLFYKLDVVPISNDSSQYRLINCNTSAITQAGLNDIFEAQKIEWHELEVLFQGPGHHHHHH

AE.con gp140CF [3] = assay: ELISA, OD405 at 10 ug/ml
B.040 gp140C = assay: ELISA, OD405 at 10 ug/ml
B.62357 gp140C = biological target: T4, B.62357 gp140C; assay: ELISA, OD405 at 10 ug/ml
T4 construct: also called B.62357 140C

B.63521_V1/V2 tags = assay: ELISA, OD405 at 10 ug/ml
B.Case A2 V1/V2 tags = assay: ELISA, OD405 at 10 ug/ml
B.con gp140CF = assay: ELISA, OD405 at 10 ug/ml
C.1086 gp140 = biological target: T5, C.1086 gp140; assay: ELISA, OD405 at 10 ug/ml
T5 construct: also called C.1086gp140C

Con 6 gp120 = assay: ELISA, OD405 at 10 ug/ml
D.9009SA V1/V2 tags = assay: ELISA, OD405 at 10 ug/ml
G.con gp140CF = assay: ELISA, OD405 at 10 ug/ml
AE.A244 V1V2 Tags = AE.A244 V1V2 Tags (HIV-1); assay: ELISA, OD405 at 10 ug/ml
AE.A244 gp120 delta 11 [4] = biological target: T2, AE.A244 gp120 delta 11; assay: ELISA, OD405 at 10 ug/ml
C.CAP206 gp140CF.12 = C.CAP206 gp140CF.12 (HIV-1); assay: ELISA, OD405 at 10 ug/ml
gp70 B.CaseA2 V1/V2 = biological target: T6, gp70 B.CaseA2 V1/V2 (HIV-1 V1V2 on murine leukemia virus gp70); assay: ELISA, OD405 at 10 ug/ml
T6 construct: also called B.gp70CaseA2 V1/V2; gp70 B.CaseAV1V2
T6 chain: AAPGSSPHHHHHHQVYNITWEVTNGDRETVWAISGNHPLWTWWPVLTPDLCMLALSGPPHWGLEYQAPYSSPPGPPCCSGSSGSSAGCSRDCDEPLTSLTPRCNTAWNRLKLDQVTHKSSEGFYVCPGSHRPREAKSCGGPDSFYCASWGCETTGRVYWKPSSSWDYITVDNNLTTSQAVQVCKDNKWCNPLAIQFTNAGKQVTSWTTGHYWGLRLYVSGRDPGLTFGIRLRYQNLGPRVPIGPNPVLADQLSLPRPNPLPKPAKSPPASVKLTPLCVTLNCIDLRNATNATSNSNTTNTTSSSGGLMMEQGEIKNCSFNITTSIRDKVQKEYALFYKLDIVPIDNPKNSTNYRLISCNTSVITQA

C.1086 V1V2 Tags = C.1086 V1V2 Tags (HIV-1); assay: ELISA, OD405 at 10 ug/ml
A.Q23 V1V2 tags = A.Q23 V1V2 tags (HIV-1); assay: ELISA, OD405 at 10 ug/ml
AE.97CNG2XF gp140CF = biological target: T7, AE.97CNG2XF gp140CF (HIV-1); assay: ELISA, OD405 at 10 ug/ml
T7 construct: also called E.97CNGX2F gp140CF

B.HXB/BAL gp140CFI = biological target: T8, B.HXB/BAL gp140CFI (HIV-1, UniProt P04578 33-680); assay: ELISA, OD405 at 10 ug/ml
T8 construct: also called B.HxB/Ba gp140 CFI

B.9021 gp140C = B.9021 gp140C (HIV-1); assay: ELISA, OD405 at 10 ug/ml
SIV CPZ US-1 gp140CF = biological target: T9, SIV CPZ US-1 gp140CF (SIVcpz); assay: ELISA, OD405 at 10 ug/ml
T9 construct: also called US-1 SIVCPZ gp140CF
T9 chain: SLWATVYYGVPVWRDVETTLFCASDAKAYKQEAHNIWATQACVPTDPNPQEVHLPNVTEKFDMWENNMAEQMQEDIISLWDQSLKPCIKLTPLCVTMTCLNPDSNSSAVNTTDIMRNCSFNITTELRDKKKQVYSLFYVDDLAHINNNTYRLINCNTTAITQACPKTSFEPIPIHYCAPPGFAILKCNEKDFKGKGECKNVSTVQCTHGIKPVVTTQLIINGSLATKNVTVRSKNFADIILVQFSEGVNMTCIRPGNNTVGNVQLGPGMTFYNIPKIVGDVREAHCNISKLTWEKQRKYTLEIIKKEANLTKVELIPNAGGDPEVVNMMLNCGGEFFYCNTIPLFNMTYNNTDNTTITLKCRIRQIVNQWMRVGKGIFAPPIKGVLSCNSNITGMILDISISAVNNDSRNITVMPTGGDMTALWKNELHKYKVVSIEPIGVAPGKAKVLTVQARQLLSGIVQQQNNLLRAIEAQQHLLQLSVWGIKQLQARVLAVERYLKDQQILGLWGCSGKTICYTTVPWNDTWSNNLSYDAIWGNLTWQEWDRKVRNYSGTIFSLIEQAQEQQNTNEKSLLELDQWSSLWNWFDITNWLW

B1: CH59 (antibody, V domains shown)
VH: EVQLVESGGGLVQPGRSLRLSCAASGFTFDDGAMHWVRQAPGKGLEWVSGISWNSNIIAYADSVKGRFTISRDNAKNSLYLEMNSLRVEDTALYYCAKDSPRGELPLNYWGQGTLVTVSS
VL: SYELTQPPSVSVSPGQTARITCSGDALPKNYAYWYQQKSGQAPVLVIYEDSKRPSGIPERFSGSSSGTMATLTISGAQVEDEADYYCYSTDSSGNHRVFGGGTKLTVL
notes: also called mAb CH59
binding result (AE.con gp140CF [1]): binds | Kd (AE.A244 gp120 delta 11 [2]): 2.2 nM

B2: PG9 reverted unmutated ancestor antibody (antibody, V domains shown)
VH: QVQLVESGGGVVQPGRSLRLSCAASGFTFSSYGMHWVRQAPGKGLEWVAVISYDGSNKYYADSVKGRFTISRDNSKNTLYLQMNSLRAEDTAVYYCAREAGGPDYRNGYNYYDFWSGYYNYYYMDVWGKGTTVTVSS
VL: QSALTQPASVSGSPGQSITISCTGTSSDVGSYNLVSWYQQHPGKAPKLMIYEVSKRPSGVSNRFSGSKSGNTASLTISGLQAEDEADYYCCSLTSTRRWVFGGGTKLTVL
notes: also called PG9 RUA; PG9_RUA
binding result (A.9004SS V1/V2 tags): no binding (tested: 10 ug/ml) | binding result (AE.con gp140CF [3]): no binding (tested: 10 ug/ml) | binding result (B.040 gp140C): no binding (tested: 10 ug/ml) | binding result (B.62357 gp140C): no binding (tested: 10 ug/ml) | binding result (B.63521_V1/V2 tags): no binding (tested: 10 ug/ml) | binding result (B.Case A2 V1/V2 tags): no binding (tested: 10 ug/ml) | binding result (B.con gp140CF): no binding (tested: 10 ug/ml) | binding result (C.1086 gp140): no binding (tested: 10 ug/ml) | binding result (Con 6 gp120): no binding (tested: 10 ug/ml) | binding result (D.9009SA V1/V2 tags): no binding (tested: 10 ug/ml) | binding result (G.con gp140CF): no binding (tested: 10 ug/ml) | binding result (AE.A244 V1V2 Tags): no binding (tested: 10 ug/ml) | binding result (AE.A244 gp120 delta 11 [4]): no binding (tested: 10 ug/ml) | binding result (C.CAP206 gp140CF.12): no binding (tested: 10 ug/ml) | binding result (gp70 B.CaseA2 V1/V2): no binding (tested: 10 ug/ml) | binding result (C.1086 V1V2 Tags): no binding (tested: 10 ug/ml) | binding result (A.Q23 V1V2 tags): no binding (tested: 10 ug/ml) | binding result (AE.97CNG2XF gp140CF): no binding (tested: 10 ug/ml) | binding result (B.HXB/BAL gp140CFI): no binding (tested: 10 ug/ml) | binding result (B.9021 gp140C): no binding (tested: 10 ug/ml) | binding result (SIV CPZ US-1 gp140CF): no binding (tested: 10 ug/ml)

Reference: patent US9988424 (DUKE UNIVERSITY, dated 2018)
